Data as given in the nanobody polyreactivity screen of Harvey et al. (2022).

Experiment: yeast display, Sf9 membrane polyspecificity reagent, FACS + sequencing; frameworks hold sequencing errors
Summary of the method: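 Synthetic nanobody libraries on Saccharomyces cerevisiae BJ5465 were galactose-induced for 36–48 hours, stained 1 hour at 4 °C with 10% biotinylated, detergent-solubilized Sf9 membrane reagent and enriched on streptavidin microbeads. FACS then separated cells into low and high (top ~1%) gates by anti-HA (expression) and streptavidin (reagent binding) fluorescence. Genes were colony-PCR amplified, MiSeq 2 × 250 sequenced and CDR-length filtered. A clone's polyreactivity label is that of its gate of origin.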

Row | Sequence | polyreactivity (PSR sort gate)
1 | QVQLVEARGGLVQAGGSLRLSCAASGSILRYTMGWYRPAPGKERELVAAITRSGTSTYYADSVKGRFTISRDNAKNTVYLQMNSLKPEDTAVYYCAAREKYASHEYDYWGQGTQVTVSS | high polyreactivity
2 | QVQLVEPGGGIVQAGGSLRLSCAASGYIFYNYAMGWYRQAPGKERELVAAITSGGSTYYADSVKGRFTISRDNAKNTVYFQMNSLKPEDTAVYYCAAYLFPAYSRISNDYWGQGTQVTVSS | high polyreactivity
3 | QVQLVESAAGLFQAGGRLRLSCAASGRICGFYAKGWYTQAPGKQRDLVAAITVSGSSTRYADSVKGRFTISRDNAKNTVYLQMNSLKPEDTAVYYCAARIRAKYSYGYWGQVTQVTVSS | high polyreactivity
4 | QVQLVESAAGLVQAGGSLRISCAASGYTFWLYAMGWYRQAPGKEREFVAAISTSGGSTYADSVKGRFTISRDNAKNTVYLQMNSLKPEDTAVYYCNAGYLLYYDYHLFYWGQGTQVTVSS | low polyreactivity
5 | QVQLVESAAGLVQAGGSLRLSCAASGFTFSFYTMGWYRQAPAKDRELVAAISSGGTPYYADSVKGRFTISRDNAKNTVYLQMNSLKPEDTAVYYCAAYGRYASWIEFYSNYDYWGQGTQVTVSS | low polyreactivity
6 | QVQLVESAAGLVQAGGSLRLSCAASGSIFSYYAMGWSRQAPGKERELVAAITGRGGNTYYADSVKGRFTISRDNAKNTVYLQMNSLKPEDTAVDYCAKDYFGWYDVETPYDYWGQGTQVTVSS | low polyreactivity
7 | QVQLVESAAGLVQAGGSLRLSCPASGITFYYYAKGWYRQEPGKESELVAAISGGGDSTYYADSVKGRFTISRDNAKNTVYLQMNSLKPEDTAVYYCAAGQDYWVPDDSLFYYWGQGTQVTVSS | low polyreactivity
8 | QVQLVESAAGLVQAGGSLRLTCDGSGTTFPGYAMGWYRPEPGNERELVAAGGSTYYADSVKGRFTISRDNAKNTVYFQMNCLKPVETAGYYCAASWGSFQKGTYYYWGQGTQVTVSS | low polyreactivity
9 | QVQLVESAAGLVQAVGSLRLSCAPSGITFYDYTMGWYRQAPGKERELVAAITSSGVSTYYADSVKGRFTISRDNAKNTVYLQMNSLKPEDTAVYYCATDAWSVYSYLAFTYDYWGQGTQVTVSS | low polyreactivity
10 | QVQLVESAGALVQAGGRLRLSCAASGRTFRKYAMGWYRQAPGTERELVAAISWSGGSTYYANSVKGRFTISRDNAKNTVYLQMNSLKPEDTAVYYWAAVPVHTGSLYWGFTTGYDYWGQGTQVTVSS | low polyreactivity
11 | QVQLVESAGGIVQAGGSLRLSCAASGFTFTGYAMGWYRQAPGKEREMVAAINARGTSTYYADSVKGRFTISRDNAKNTVYLQMNSLKPEDTAVYYCNREGRSVSGYYYYWGQGTQVTVSS | high polyreactivity
12 | QVQLVESAGGIVQAGGSLRLSCAASGSTFGVYAMGLYRQAPGKERELVASISSGDSTTYADSVKGRFTISRDNAKNTVYFQMNSLKPDVTAVYYCNAVYYTGYYWGHGTQVTVSS | low polyreactivity
13 | QVQLVESAGGLVQAGGRLRLSCAASGFIFYRYAMGWYRQAPGKERELVAAISRNGGSTYYADSVKGRFTISRDNAKNTVYLQRNILKPEDTAVYYCNVDYRLVRIRVDYEYWGQGTQVTVSS | high polyreactivity
14 | QVQLVESAGGLVQAGGRLRLSCAASGFTFRYYAMGWYRQAPGKERELVATITPGGSTNYADSVKGRFTISRDNAKNTVYLEMNSLKPEDTAVYYCAASLYRVIAFGYWGQGTQVTVSS | high polyreactivity
15 | QVQLVESAGGLVQAGGRLRLSCAASGSTFSYYAMGWYRQAPGKEREWVAAISRSGGSTYYADSVKGRFTISRDNAKNTVYLQLNSLKPDDTAVYYCNRYYYTVTREFDYWGQGTQVTVSS | low polyreactivity
16 | QVQLVESAGGLVQAGGSLPLSCAASGSTFASNTMGWYRQAPGKERELVAAITQSGGTTYYADSVKGRFTISRDNAKNTVSLQMNSLKPEDTAVYYCATDVGYFYTVVGGYDYWGTGTQVTVSS | low polyreactivity
17 | QVQLVESAGGLVQAGGSLRLICAASGGTFSTYAIGWYRQAPGKEREFVAAITRSGTSTYYADSVKGRFTISRDNAKNTVYLQMNGLNPEDTAVYYCAAGVYSFRYDYWGQGTQVTVSS | low polyreactivity
18 | QVQLVESAGGLVQAGGSLRLSCAASASTFTNYVMGWYRQAPGKERELVAAITKSGGSTYYADSVKGRYTISRDNAKNTVYLQMNRLKPEDTAVYYCAARRTTEFGYWGQGTQVTVSS | high polyreactivity
19 | QVQLVESAGGLVQAGGSLRLSCAASGFIFGKNAMGLYRQAPGKERELVAVITRSGSRTYYADSVKGRLTISRDNAKNTVYLQMNSLKPEDTAVYYCATDNVYAYDYWGLGTQVTVSS | high polyreactivity
20 | QVQLVESAGGLVQAGGSLRLSCAASGFIFHRYAMGWYRQAPGKERELVAAITGRGSSTYYADSVKGRFTISRDNAKNTVYLQMNSLKPEDTAVYYCNAYRYQVYDTGWFGYWGQGTQVTVSS | high polyreactivity
21 | QVQLVESAGGLVQAGGSLRLSCAASGFIFRNYAMGWYRQEHGKERELVAAISRRGGSTYYADSVKGRFTISRDNAKNTVYLQMNSLKPEDTAVYYCAADYYYSSRIEYYYWGQGTQVTVSS | high polyreactivity
22 | QVQLVESAGGLVQAGGSLRLSCAASGFIFVKYAMGWDRQAPGKERELVAAISSRGGITYYADSVKGRYTISRDNAENTVYLQMISLKPADTAVYYCNTVSRGYRGNYWGQGTQVTVSS | low polyreactivity

Row | Sequence | polyreactivity (PSR sort gate)
23 | QVQLVESAGGLVQAGGSLRLSCAASGFIFVKYVMGWYRQEPGKERELVATISNGVSTNYADSVKGRFTISRDNAKNTVYLQMNSLKPEDTAVYDCNTGSNAWYFSGDYWGQGTQVTVSS | low polyreactivity
24 | QVQLVESAGGLVQAGGSLRLSCAASGFTFGWYAMGWYRQAPGKERELVAAISSTGGRTYYADSVKGRFTISRDNAKNTVYLQMNSLKPEDTAVYYCAAAYSYGTEYGYWGQGTQVTVSS | high polyreactivity
25 | QVQLVESAGGLVQAGGSLRLSCAASGFTFRYYAMGWYRQAPGKERELVAAISWSGGRTYYADSVKWRLTISRDNANNTVYLQMNSLKPEDTADYYCAADGYQYFYGDFDYWGQGTQVTVSS | high polyreactivity
26 | QVQLVESAGGLVQAGGSLRLSCAASGFTFYFYAMGWSRQAPGKERELVAAISRSGSRTYYADSVKGRFTISRDNAKNTVYLQMNSLKPEDTAVYYCARVRPRGLYFVLHYDYWGQGTQVTVSS | high polyreactivity
27 | QVQLVESAGGLVQAGGSLRLSCAASGFTFYYYTMGWYRQAPGKETELVAAITWRGGSTNYADSVKGRFTISRDNAKNTVYLQMNSLKPEDTAVYYCAAVSYWFWPGMDYWGQGTQVTVSS | low polyreactivity
28 | QVQLVESAGGLVQAGGSLRLSCAASGGIFFSYAMGWYRQAPGKERELVAAIRTNGGTTYYADSVKGRFTISRDNAKNNVYLQMNSLTPEDTAVYYCASLPGGYYDRGEYDYWGQGTQVTVSS | low polyreactivity
29 | QVQLVESAGGLVQAGGSLRLSCAASGIIFPVYAMGWYRQAPGKERELVAAITSSGGSTYYADSVKGRFTISRDNAKNTVYLQMNSLKPEDTAVYYFAAVRKSRFDYGGQGTQVTVSS | high polyreactivity
30 | QVQLVESAGGLVQAGGSLRLSCAASGIIFTSNTMGWYRQAPGKEREFVASINWNGSSTYADSVKGRFTISRDNAKNTVYLQMNSLKPEDTAVYYCAADWLGYQYGYWGQGTQVTVSS | low polyreactivity
31 | QVQLVESAGGLVQAGGSLRLSCAASGLIFRFNAMGWYRQAPGKERELVAAITRAGSTYYADSVKGRFTISRDNAKKTVYLQMNSLKPEDTAVYYCAAGQYRLPQRGYGYWGQGTQVTVSS | high polyreactivity
32 | QVQLVESAGGLVQAGGSLRLSCAASGLTFPPNAMGWYRHAPGKERELVADSGGSTNYADSVKGRFTISRDNAKNTVYLQMNSLKPEDTAVYYCAAPPYSDGQWDDYWGQGSQVTVSS | low polyreactivity
33 | QVQLVESAGGLVQAGGSLRLSCAASGNTFPPYPMGWYRQAPGKERELVAAISCGGRTYYADSVKGRFTISRDNAKNTVYLQMNSLKPEDTAVYYCAVYVPNYYSYHYDYWGQGTQVTVSS | high polyreactivity
34 | QVQLVESAGGLVQAGGSLRLSCAASGRIFARYAMGWYRQAPGKVRELVAAISASGGSTYYADSVKGRFTISRDNAKYTVYLQMNSLKPEDTAVYYCAARFSYPYRIAFNYWGQGTQVTVSS | low polyreactivity
35 | QVQLVESAGGLVQAGGSLRLSCAASGRIFGYYAMGWYRQAPGKERELVARISRGGSTYYADSVKGRFTISRDNAMNTVYLQMTSLKPEDTGVYYCAATRSGYTSYTDDSWGQGTQVTVSS | high polyreactivity
36 | QVQLVESAGGLVQAGGSLRLSCAASGRIFHKNAMGWYRQAPGKERELVATINYGGSSTYYADSVKGRFTISRDNAKNTVYLQMNSLKPEDTAVYYCAAAPEYLTDHAYWGQGTQVTVSS | low polyreactivity
37 | QVQLVESAGGLVQAGGSLRLSCAASGRIFSHYAMGWYRQAPGKERELVAAITSSGGSTSYADSVKGRFTISRDNAKNTVYLQMNSLKPEDTAVYYCAAEDTQVRRSPVRPLEDYWGQGTQVTVSS | low polyreactivity
38 | QVQLVESAGGLVQAGGSLRLSCAASGRIFYGNAMGWYRQAPGKERELVAAISKRGGSTHYAASVKGRFTISRDNAKNTVYLQMNSLKPEDTAVYYCATDSYYVGAVHYYYWGQGTQVTVSS | high polyreactivity
39 | QVQLVESAGGLVQAGGSLRLSCAASGRIFYLYAMGWYRQAPGQERELVARITSGSGTYYADSVKGRFTISRDNAKNTVYLQMNSLKPEDTGVYYCAAREPGVCFVGHYTGLDYWGQGTQVTVSS | low polyreactivity
40 | QVQLVESAGGLVQAGGSLRLSCAASGRIFYYAMGWYRQAPGKEREFVAAISGSGGSTNYADSVKGRFTISRDNAKNTVYLQMNSLKPEDTAVYYCNAESWSWGFIYEYEYWGQGTQVTVSS | high polyreactivity
41 | QVQLVESAGGLVQAGGSLRLSCAASGRTFQYYALGWYRQAPGKERELVAAISWSGGSTYYADSVTGRFTISRDNAKNTVYLLMNSLKPEDSAVYYCAKTSSGRKFYWGQGTQVTVSS | high polyreactivity
42 | QVQLVESAGGLVQAGGSLRLSCAASGRTFYPYAMGWYRQAPGKARELVAAIRSSGGTTYYADSVKGRFTISRDNAKNTVYVQMNSLKPEDTAVYYCAAFVDRQGGYYWGQGTQVTVSS | high polyreactivity
43 | QVQLVESAGGLVQAGGSLRLSCAASGSIFPLYAMGWYRQAPGKERELVAAISYSGGRTYYADSVKGRFTISRDNAKNTVYLQMNSLKPEDTAVYYCNTRQRVIDDYWGQGTQVTVSS | high polyreactivity
